Legend:
Human IL-6 receptor [1] = target: T1, Human IL-6 receptor (Homo sapiens, UniProt P08887); assay: cell-based or functional assay
Human IL-6 receptor [2] = target: T1, Human IL-6 receptor; assay: ELISA; human IL-6R (2 µg/mL) immobilised on microtiter plates; serial dilutions of pIL6RmAb; detected with HRP-conjugated anti-human-gamma HC antibody; KD by non-linear regression, one-site binding model; settings: both partners purified

T1 sequence (P08887 20-365): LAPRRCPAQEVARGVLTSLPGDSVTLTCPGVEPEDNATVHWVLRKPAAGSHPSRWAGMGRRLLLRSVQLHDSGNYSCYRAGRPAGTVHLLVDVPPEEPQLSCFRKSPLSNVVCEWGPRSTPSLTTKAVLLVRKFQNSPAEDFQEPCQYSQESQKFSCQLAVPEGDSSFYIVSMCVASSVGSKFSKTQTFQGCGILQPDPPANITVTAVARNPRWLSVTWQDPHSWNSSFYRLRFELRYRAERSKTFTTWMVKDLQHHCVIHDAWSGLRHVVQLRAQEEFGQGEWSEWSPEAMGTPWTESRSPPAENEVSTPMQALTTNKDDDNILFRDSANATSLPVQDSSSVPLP

B1: Plant-produced IL6RmAb (anti-IL-6 receptor monoclonal antibody with the amino acid sequence of sarilumab) (antibody, V domains shown)
VH: EVQLVESGGGLVQPGRSLRLSCAASRFTFDDYAMHWVRQAPGKGLEWVSGISWNSGRIGYADSVKGRFTISRDNAENSLFLQMNGLRAEDTALYYCAKGRDSFDIWGQGTMVTVSS
VL: DIQMTQSPSSVSASVGDRVTITCRASQGISSWLAWYQQKPGKAPKLLIYGASSLESGVPSRFSGSGSGTDFTLTISSLQPEDFASYYCQQANSFPYTFGQGTKLEIK
notes: heavy chain of sarilumab; light chain of sarilumab; Full IgG1 with kappa light chain, heterotetramer of ~150 kDa; made in a glycoengineered N. benthamiana line; also called pIL6RmAb; anti-IL6R mAb; copies: 2 + 2
- IC50 of inhibition of IL-6 signaling in luciferase reporter cells (Promega IL-6 Bioassay) with 25 ng/mL (~1.19 nM) recombinant human IL-6; blocks IL-6 with IL-6R (Human IL-6 receptor [1]): 0.081 µg/mL
- IC50 of inhibition of IL-6 signaling in luciferase reporter cells (Promega IL-6 Bioassay) with 25 ng/mL (~1.19 nM) recombinant human IL-6; blocks IL-6 with IL-6R (the same IC50 in molar units) (Human IL-6 receptor [1]): ~0.54 nM
- Kd (Human IL-6 receptor [2]): 0.083 nM

From article PMC8623585 (Vaccines, 2021)
